Results reported in paper PMC4148960.

Tests used:
[1] = target: MYC-Grg5 (in COS-7 cells) (UniProt P63002)
GST-fused Grg1 = GST-fused Grg1 (UniProt Q62440); assay: pull-down; GST-Grg1 or GST-Grg5 from lysed BL21 E. coli incubated with S^35-labelled in vitro translated Sox2 proteins; pulled down with Glutathione-sepharose 4B beads; PAGE gel on a phosphorimager
GST-fused Grg5 = GST-fused Grg5 (UniProt P63002); assay: as above
GST-fused Grg5, sequence (P63002 whole entry, the tested form may be a part): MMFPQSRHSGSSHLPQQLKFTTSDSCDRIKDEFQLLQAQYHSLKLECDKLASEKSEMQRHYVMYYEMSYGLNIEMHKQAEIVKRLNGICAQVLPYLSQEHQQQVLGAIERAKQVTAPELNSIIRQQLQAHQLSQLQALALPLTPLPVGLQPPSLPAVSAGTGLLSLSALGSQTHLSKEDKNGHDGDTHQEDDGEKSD

radiolabelled Sox2^M203–209 (in vitro translated), sequence (P48432 whole entry): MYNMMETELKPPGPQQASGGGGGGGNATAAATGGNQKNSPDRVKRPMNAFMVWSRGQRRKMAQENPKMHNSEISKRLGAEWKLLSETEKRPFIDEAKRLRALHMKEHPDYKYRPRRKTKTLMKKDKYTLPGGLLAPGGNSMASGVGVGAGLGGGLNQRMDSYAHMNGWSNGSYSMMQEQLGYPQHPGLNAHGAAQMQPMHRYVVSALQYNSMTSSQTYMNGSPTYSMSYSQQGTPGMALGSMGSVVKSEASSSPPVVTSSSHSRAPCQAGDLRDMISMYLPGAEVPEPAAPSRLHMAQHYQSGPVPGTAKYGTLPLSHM
GST-fused Grg1, sequence (Q62440 whole entry, the tested form may be a part): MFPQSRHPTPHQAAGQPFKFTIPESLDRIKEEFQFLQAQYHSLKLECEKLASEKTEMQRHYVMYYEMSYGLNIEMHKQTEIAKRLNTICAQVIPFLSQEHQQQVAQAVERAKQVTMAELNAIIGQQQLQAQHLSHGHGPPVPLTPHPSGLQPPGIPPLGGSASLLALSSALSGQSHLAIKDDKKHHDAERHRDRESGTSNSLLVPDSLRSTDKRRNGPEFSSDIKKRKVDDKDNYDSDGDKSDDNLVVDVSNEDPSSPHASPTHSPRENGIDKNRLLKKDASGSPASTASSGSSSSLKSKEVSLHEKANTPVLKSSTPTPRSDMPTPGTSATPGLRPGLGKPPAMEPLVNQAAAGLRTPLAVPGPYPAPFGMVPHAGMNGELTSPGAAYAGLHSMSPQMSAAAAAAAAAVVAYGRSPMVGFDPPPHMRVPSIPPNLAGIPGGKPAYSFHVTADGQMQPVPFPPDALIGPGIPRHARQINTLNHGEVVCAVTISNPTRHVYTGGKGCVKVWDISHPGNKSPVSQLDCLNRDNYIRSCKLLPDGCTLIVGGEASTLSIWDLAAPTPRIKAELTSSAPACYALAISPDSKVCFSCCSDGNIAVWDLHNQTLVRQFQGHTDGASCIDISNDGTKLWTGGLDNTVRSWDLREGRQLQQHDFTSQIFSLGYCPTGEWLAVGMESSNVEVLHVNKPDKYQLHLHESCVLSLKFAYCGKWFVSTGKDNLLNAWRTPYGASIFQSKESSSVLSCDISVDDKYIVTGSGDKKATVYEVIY
Sox2^M203–209 mutant (transfected, COS-7 cells), sequence (P48432 whole entry, change not shown): as the sequence (P48432 whole entry) above
MYC-Grg5 (in COS-7 cells), sequence (P63002 whole entry, the tested form may be a part): as the sequence (P63002 whole entry, the tested form may be a part) above

| Substance | subcellular translocation assay: proportion of co-transfected COS-7 cells with altered distribution of MYC-Grg5, mutant against WT Sox2 [1] | fold decrease in the amount pulled down against WT Sox2 (GST-fused Grg1) | fold decrease in the amount pulled down against WT Sox2 (GST-fused Grg5) |
| --- | --- | --- | --- |
| Sox2^M203–209 mutant (transfected, COS-7 cells) (from UniProt P48432 1-319) (natural protein) | 50% |  |  |
| radiolabelled Sox2^M203–209 (in vitro translated) (from UniProt P48432 1-319) (natural protein) |  | 4 fold | 4 fold |
